# From the DeepSol protein solubility set
# Assay: soluble on expression in E. coli; label from the status in PepcDB or PDB records
row,Sequence,soluble on expression in E. coli
1,MSMNRQEISDLCVKSLEGRMVGTEAQNIENGNAFYRYFFTNFPDLRVYFKGAEKYTADDVKKSERFDKQGQRILLACHLLANVYTNEEVFKGYVRETINRHRIYKMDPALWMAFFTVFTGYLESVGCLNDQQKAAWMALGKEFNAESQTHLKNSNLPHV,not soluble
2,MSLVRIKDIALKAKVSSATVSRILNEDESLSVAGETRQRVINIAEELGYQTVAKRRKSRGQKQRAQPLIGVLSCLSPDQERQDPYFSSIRKGIEKECFEQEIFITNSIHLGSFQEHIFRELDGVIVIGRVHDEAVKHISGRLEHAVFINHSPDPQAYDSIGIDFESASRQAIDHLFDLGYKRLGYIGGQEKEHTLKDGQSIRRTIEDKRLTAFLESAAPQPEHVLIGEYSMREGYRLMKKAIDQGHLPEAFFIASDSMAIGALKALQEAGLQVPRDTAIVSFNGIEEAEFASTPLTTVKVYTEEMGRTGVKLLLDRLNGRTLPQHVTLPTTLIVRQSCGCTAKEGHHHHHH,soluble
3,MGHHHHHHAKAVAPTTGWKQENGMWYFYNTDGSMATGWVQVNGSWYYLNSNGSMKVNQWFQVGGKWYYVNTSGELAVNTSIDGYRVNDNGEWVR,soluble
4,MWRAKKPTLERRSTDGRRSSIVDWINGLSDNNNYKSDHWVEKHDEGCERMTRNGSVCAVEESEPDVPTQHREVLLTKLKIEIKNIMAEHGAKKYLNLNSPYVTSLCIAVDACIMDGLRRRLLTLFNSPSSMSLLQIIAKSNGPAQQVLDQTREIEELRTSAIPVHLIWIREALYLKSLSTIINHFIDSKSVRRYYDNSALLLDPVKGRLVATLMMAPCMVTYRRMSNRIEQEATAEELVEGATRGSTSTVPSRPPLSKIKKIHFLDNPSSYMSLQKFYDGNLSLKWVPNQLMHASSQPSSGHSNNGEFTNIWKNTINIEMQDIIYIHLHQKDEISPTCLTFVNCEGVQSAPFQLPAGQHSIAFLSSLETGLAPLLRLDPPLWVGTTKEKILPRLRKRSTAVANPAMLDYVFRLVRTSGVEPAPEDIEDPLAPTSHSPPIHDNCVSLPNSPYIVDNVDSIVNFQIGTACQSMRNQIMARAFYGWLTYVRHLRTIRTHLLHLVDTKTLICDDDCDPVDEKFWKQARAEPTEENEKEFLKRVYWRGIEGINTKEVRRMAWPYLLGLFEWNESPESRLEQFTSQYWQDIEEWRVLEAEVRRRDEEAFRAARARKAASPVREESCDVFEDPNEPTCSQHYDRENLITLFRANLHRIDKDVERCDRNLMFFSNKDNLESLRRVMYTYVRRNLEEGYTQGMCDLLAPLLVTFEDEALTLECFSLLMLRQRGKFPQRPGMSKCLLNLRSLIQVVDPQIYALISDIDYAQALSFAFRWFLLDFKRELSYECTYKVWEVIWAAQRLRITDDFAIFFGLATITNYHDVLITNNFDYTDMIKFFNEMAERHDCSRLLSSARTHVKCLQNLVQHLK,soluble
5,MPGFDYKFLEKPKRRLLCPLCGKPMREPVQVSTCGHRFCDTCLQEFLSEGVFKCPEDQLPLDYAKIYPDPELEVQVLGLPIRCIHSEEGCRWSGPLRHLQGHLNTCSFNVIPCPNRCPMKLSRRDLPAHLQHDCPKRRLKCEFCGCDFSGEAYESHEGMCPQESVYCENKCGARMMRRLLAQHATSECPKRTQPCTYCTKEFVFDTIQSHQYQCPRLPVACPNQCGVGTVAREDLPGHLKDSCNTALVLCPFKDSGCKHRCPKLAMARHVEESVKPHLAMMCALVSRQRQELQELRRELEELSVGSDGVLIWKIGSYGRRLQEAKAKPNLECFSPAFYTHKYGYKLQVSAFLNGNGSGEGTHLSLYIRVLPGAFDNLLEWPFARRVTFSLLDQSDPGLAKPQHVTETFHPDPNWKNFQKPGTWRGSLDESSLGFGYPKFISHQDIRKRNYVRDDAVFIRAAVELPRKILS,soluble
6,MAKTYKKIGEETKVIEATEPLTILLMGVDTGNVERTETWVGRSDSMILMTVNPKTKKTTMMSLERDILTRIESGNGQAHEAKLNSAYADGGAELAIETIQKMMNIHIDRYVMVNMRGLQKLVDAVGGITVNNILGFPISISDQEEFNTISIGVGEQHIGGEEALVYARMRYQDPEGDYGRQKRQREVIQKVMEKALSLNSIGHYQEILKALSDNMQTNIDLSAKSIPNLLGYKDSFKTIETQQLQGEGEILQGVSYQIVSRAHMLEMQNILRRSLGQEEVTQLETNAVLFEDLFGRAPVGDEDNLEHHHHHH,soluble
7,GPGSMTTSGALFPSLVPGSRGASNKYLVEFRAGKMSLKGTTVTPDKRKGLVYIQQTDDSLIHFCWKDRTSGNVEDDLIIFPDDCEFKRVPQCPSGRVYVLKFKAGSKRLFFWMQEPKTDQDEEHCRKVNEYLNNPPMPGALGASGSSGHELSALGGEGGLQSLLGNMSHSQLMQLIGPAGLGGLGGLGALTGPGLASLLGSSGPPGSSSSSSSRSQSAAVTPSSTTSSTRATPAPSAPAAASATSPSPAPSSGNGASTAASPTQPIQLSDLQSILATMNVPAGPAGGQQVDLASVLTPEIMAPILANADVQERLLPYLPSGESLPQTADEIQNTLTSPQFQQALGMFSAALASGQLGPLMCQFGLPAEAVEAANKGDVEAFAKAMQNNAKPEQKEGDTKDKKDEEEDMSLD,soluble
8,FQGAMDPEFSMKIGIIGAMEEEVTLLRDKIENRQTISLGGCEIYTGQLNGTEVALLKSGIGKVAAALGATLLLEHCKPDVIINTGSAGGLAPTLKVGDIVVSDEARYHDADVTAFGYEYGQLPGCPAGFKADDKLIAAAEACIAELNLNAVRGLIVSGDAFINGSVGLAKIRHNFPQAIAVEMEATAIAHVCHNFNVPFVVVRAISDVADQQSHLSFDEFLAVAAKQSSLMVESLVQKLAHG,soluble
9,MLKKLSPIFSNITGVVRYQDLAYVASVSDEIQEQNIAHSYVTEWDCGTWCVAGEDDDMLPWEIVSATVVHEPVEQALFLGARGQVFCMGSGDIHEEQLPDGDDAIGGRGNMRGVACIDGVAYACGMDRQVYRRFDENDWRAIDTGARPPAGSEAVVGFEAIGGFGAREIYAVGWDGEIWQYDGKRWQPRESPTNLILTAICCAEDGSVYACGQAGTLLRGRNDHWEIIAQDDVDEDLWSLAWFDGALYVSSATAVYTLVGGHLKEVDFGDEQPQRCFHLSAADGVLWSIAAKDIFSFDGQQWTRID,not soluble
10,GPGSMPVPPPPPPPPPPPPPPPPPANSGGPSASVGGAAAAVFAEICQGGDNITARLRHVTDDQKMYKQNIRHGEVDMSELEHKKAAAEERRRAQQRTESTTGEEAAQPPVLTLEGDKRWVVKHQAGSPAVQLQLVLDKAEMRHAVRIENCHHAYITITNKVNSVSIVNCTKVQVALQVIVSSLEVLGCADVDVQVAQAAPTIDIERSTSVNVYLLDKDEARNTEIVTACSSTVNVLFPSEKEEDIVERAIPEQFVTRIVPDGKGGHKLCTKPSESF,soluble
11,MTMTMSYKAIEKIPRCSWNREEPGEQWNKIYSVETGLLGTYSFEWQSQVANKTMRKRNTNSICGRQHEPHCPVSITRAIAQPQLLTFPDSLASRGGHMTQSGQCHVSGSLLGRGHKSRGR,soluble
12,EVPDYLCCNITLEIFRDPVISPSGVTYERAAILEHLKKVGKFDPITREKIDPANLVPNLAIKEAVAAYLEKHVWAYKMGC,soluble
13,MGSDKIHHHHHHMNDLNVLVLEDEPFQRLVAVTALKKVVPGSILEAADGKEAVAILESCGHVDIAICDLQMSGMDGLAFLRHASLSGKVHSVILSSEVDPILRQATISMIECLGLNFLGDLGKPFSLERITALLTRYNARRQDLPRQIEVAELPSVADVVRGLDNGEFEAYYQPKVALDGGGLIGAEVLARWNHPHLGVLPPSHFLYVMETYNLVDKLFWQLFSQGLATRRKLAQLGQPINLAFNVHPSQLGSRALAENISALLTEFHLPPSSVMFEITETGLISAPASSLENLVRLRIMGCGLAMDDFGAGYSSLDRLCEFPFSQIKLDRTFVQKMKTQPRSCAVISSVVALAQALGISLVVEGVESDEQRVRLIELGCSIAQGYLFARPMPEQHFLDYCSGS,not soluble
14,MNLEPPKAECRSATRVMGGPCTPRKGPPKCKQRQTRQCKSKPPKKGVQGCGDDIPGMEGCGTDITVICPWEACNHCELHELAQYGIC,soluble
